From the supplement of paper PMC11246515
± gives the standard deviation of the averaged measurements.

Assay: total protein half-life in vivo (active degradation + dilution); higher = more stable protein
[1] = E. coli NCM3722 delta-smpB, growth: N-lim chemostat, doubling time 6 h
[2] = wild type E. coli NCM3722, growth: C-lim chemostat, doubling time 3 h
[3] = wild type E. coli NCM3722, growth: P-lim chemostat, doubling time 12 h
[4] = E. coli NCM3722 delta-clpP delta-lon delta-hslV, growth: N-lim chemostat, doubling time 6 h
[5] = E. coli NCM3722 delta-clpP, growth: N-lim chemostat, doubling time 6 h
[6] = E. coli NCM3722 delta-hslV, growth: N-lim chemostat, doubling time 6 h
[7] = E. coli NCM3722 delta-lon, growth: N-lim chemostat, doubling time 6 h
[8] = wild type E. coli NCM3722, growth: C-lim chemostat, doubling time 6 h
[9] = wild type E. coli NCM3722, growth: C-lim chemostat, doubling time 12 h
[10] = wild type E. coli NCM3722, growth: N-lim chemostat, doubling time 6 h
[11] = wild type E. coli NCM3722, growth: N-lim chemostat, doubling time 12 h
[12] = wild type E. coli NCM3722, growth: P-lim chemostat, doubling time 6 h

Sequence | total protein half-life in vivo [1] | total protein half-life in vivo [2] | total protein half-life in vivo [3] | total protein half-life in vivo [4] | total protein half-life in vivo [5] | total protein half-life in vivo [6] | total protein half-life in vivo [7] | total protein half-life in vivo [8] | total protein half-life in vivo [9] | total protein half-life in vivo [10] | total protein half-life in vivo [11] | total protein half-life in vivo [12]
MNRFSKTQIYLHWITLLFVAITYAAMELRGWFPKGSSTYLLMRETHYNAGIFVWVLMFSRLIIKHRYSDPSIVPPPPAWQMKAASLMHIMLYITFLALPLLGIALMAYSGKSWSFLGFNVSPFVTPNSEIKALIKNIHETWANIGYFLIAAHAGAALFHHYIQKDNTLLRMMPRRK | 5.19 h | 3.2 h | > 16 h |  |  |  |  |  |  |  |  | 
MKTLGEFIVEKQHEFSHATGELTALLSAIKLGAKIIHRDINKAGLVDILGASGAENVQGEVQQKLDLFANEKLKAALKARDIVAGIASEEEDEIVVFEGCEHAKYVVLMDPLDGSSNIDVNVSVGTIFSIYRRVTPVGTPVTEEDFLQPGNKQVAAGYVVYGSSTMLVYTTGCGVHAFTYDPSLGVFCLCQERMRFPEKGKTYSINEGNYIKFPNGVKKYIKFCQEEDKSTNRPYTSRYIGSLVADFHRNLLKGGIYLYPSTASHPDGKLRLLYECNPMAFLAEQAGGKASDGKERILDIIPETLHQRRSFFVGNDHMVEDVERFIREFPDA [P0A993] | 3.21 ± 0.12 h | 2.93 ± 0.38 h | 10.6 ± 0.24 h | 4.22 ± 0.099 h | 3.02 ± 0.088 h | 3.76 ± 0.66 h | 3.84 ± 0.51 h | 5.02 ± 0.3 h | 8.6 ± 0.59 h | 3.19 ± 0.06 h | 4.68 ± 0.09 h | 5.796 ± 0.011 h
MKVDIDTSDKLYADAWLGFKGTDWKNEINVRDFIQHNYTPYEGDESFLAEATPATTELWEKVMEGIRIENATHAPVDFDTNIATTITAHDAGYINQPLEKIVGLQTDAPLKRALHPFGGINMIKSSFHAYGREMDSEFEYLFTDLRKTHNQGVFDVYSPDMLRCRKSGVLTGLPDGYGRGRIIGDYRRVALYGISYLVRERELQFADLQSRLEKGEDLEATIRLREELAEHRHALLQIQEMAAKYGFDISRPAQNAQEAVQWLYFAYLAAVKSQNGGAMSLGRTASFLDIYIERDFKAGVLNEQQAQELIDHFIMKIRMVRFLRTPEFDSLFSGDPIWATEVIGGMGLDGRTLVTKNSFRYLHTLHTMGPAPEPNLTILWSEELPIAFKKYAAQVSIVTSSLQYENDDLMRTDFNSDDYAIACCVSPMVIGKQMQFFGARANLAKTLLYAINGGVDEKLKIQVGPKTAPLMDDVLDYDKVMDSLDHFMDWLAVQYISALNIIHYMHDKYSYEASLMALHDRDVYRTMACGIAGLSVATDSLSAIKYARVKPIRDENGLAVDFEIDGEYPQYGNNDERVDSIACDLVERFMKKIKALPTYRNAVPTQSILTITSNVVYGQKTGNTPDGRRAGTPFAPGANPMHGRDRKGAVASLTSVAKLPFTYAKDGISYTFSIVPAALGKEDPVRKTNLVGLLDGYFHHEADVEGGQHLNVNVMNREMLLDAIEHPEKYPNLTIRVSGYAVRFNALTREQQQDVISRTFTQAL | 1.87 ± 0.4 h | 2.12 ± 0.2 h | 6.82 ± 0.17 h | 4.15 h |  |  |  | 2.56 ± 0.43 h | 3.63 ± 1.1 h | 1.88 h | 3.13 h | 3.24 h
MSDQQQPPVYKIALGIEYDGSKYYGWQRQNEVRSVQEKLEKALSQVANEPITVFCAGRTDAGVHGTGQVVHFETTALRKDAAWTLGVNANLPGDIAVRWVKTVPDDFHARFSATARRYRYIIYNHRLRPAVLSKGVTHFYEPLDAERMHRAAQCLLGENDFTSFRAVQCQSRTPWRNVMHINVTRHGPYVVVDIKANAFVHHMVRNIVGSLMEVGAHNQPESWIAELLAAKDRTLAAATAKAEGLYLVAVDYPDRYDLPKPPMGPLFLAD | 5.64 ± 0.47 h |  | 11.6 ± 0.43 h | 5.48 ± 0.18 h | 4.85 ± 0.48 h | 3.92 h | 5.08 ± 0.086 h |  | 11.8 ± 2.3 h | 5.31 ± 0.53 h | 8.71 ± 1.2 h | 5.81 ± 0.58 h
MSEKLQKVLARAGHGSRREIESIIEAGRVSVDGKIAKLGDRVEVTPGLKIRIDGHLISVRESAEQICRVLAYYKPEGELCTRNDPEGRPTVFDRLPKLRGARWIAVGRLDVNTCGLLLFTTDGELANRLMHPSREVEREYAVRVFGQVDDAKLRDLSRGVQLEDGPAAFKTIKFSGGEGINQWYNVTLTEGRNREVRRLWEAVGVQVSRLIRVRYGDIPLPKGLPRGGWTELDLAQTNYLRELVELPPETSSKVAVEKDRRRMKANQIRRAVKRHSQVSGGRRSGGRNNNG | 4.94 ± 0.081 h | 2.92 ± 0.27 h | 10.6 ± 0.17 h | 6.28 ± 0.59 h | 5.65 ± 1.1 h | 6.02 ± 0.61 h | 5.92 ± 0.38 h | 5.79 ± 0.66 h | 10.4 ± 2.1 h | 6.18 ± 1.5 h | 9.66 ± 0.21 h | 5.43 ± 0.43 h
MILFVGFLLMEIVMPQISRTALVPYSAEQMYQLVNDVQSYPQFLPGCTGSRILESTPGQMTAAVDVSKAGISKTFTTRNQLTSNQSILMNLVDGPFKKLIGGWKFTPLSQEACRIEFHLDFEFTNKLIELAFGRVFKELAANMVQAFTVRAKEVYSAR [P0AGL5] | 0.621 ± 0.022 h | 0.306 h | 1.13 ± 0.68 h | 0.854 ± 0.18 h | 0.857 h | 0.542 h | 0.962 h | 0.545 h |  | 0.714 h |  | 0.372 h
MNYRIIPVTAFSQNCSLIWCEQTRLAALVDPGGDAEKIKQEVDDSGLTLMQILLTHGHLDHVGAAAELAQHYGVPVFGPEKEDEFWLQGLPAQSRMFGLEECQPLTPDRWLNEGDTISIGNVTLQVLHCPGHTPGHVVFFDDRAKLLISGDVIFKGGVGRSDFPRGDHNQLISSIKDKLLPLGDDVIFIPGHGPLSTLGYERLHNPFLQDEMPVW | 3.17 ± 0.34 h |  | 9.46 ± 1.1 h | 4.63 ± 0.21 h | 5.7 ± 1.5 h | 3.09 ± 0.2 h | 4.23 ± 0.31 h | 6.22 ± 1.2 h | 9.88 ± 0.89 h | 3.73 ± 0.55 h | 4.36 ± 0.79 h | 5.05 ± 0.39 h
MHVKYLAGIVGAALLMAGCSSSNELSAAGQSVRIVDEQPGAECQLIGTATGKQSNWLSGQHGEEGGSMRGAANDLRNQAAAMGGNVIYGISSPSQGMLSSFVPTDSQIIGQVYKCPN [P0AF70] |  | 3.19 ± 0.049 h | 11.7 ± 0.94 h | 6.05 h | 6.18 ± 0.3 h | 6.86 h | 6.39 h | 5.95 ± 0.4 h | 10.7 ± 0.76 h | 7.12 h | 12.9 ± 0.69 h | 6.01 ± 0.24 h
